Source: patent US20120114665A1 (Regeneron, published 2012)
Where “and” joins values, the source holds several entries; their conditions need not be identical. Equal entries are not always repeated. Where two headings read alike, the source gives them in different places.

T1: human RANKL (receptor activator of NF-κB ligand) (human, UniProt O14788 140-317, limits assumed)
T1 sequence: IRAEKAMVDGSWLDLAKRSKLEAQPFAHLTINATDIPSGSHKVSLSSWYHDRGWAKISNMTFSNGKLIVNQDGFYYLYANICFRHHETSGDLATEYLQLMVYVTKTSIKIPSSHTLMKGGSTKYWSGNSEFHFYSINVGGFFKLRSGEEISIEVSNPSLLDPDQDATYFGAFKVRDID

T2: human trRANKL-his (R&D) (human, UniProt O14788 136-317, limits assumed)
T2 construct: Bought (R&D); also called captured RANKL; not shown: his tag
T2 sequence: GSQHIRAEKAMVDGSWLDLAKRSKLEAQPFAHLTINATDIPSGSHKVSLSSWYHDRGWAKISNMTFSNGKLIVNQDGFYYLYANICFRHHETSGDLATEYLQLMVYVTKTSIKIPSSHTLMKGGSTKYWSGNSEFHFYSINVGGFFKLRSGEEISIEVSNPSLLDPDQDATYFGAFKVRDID

T3: hRANKL captured on an anti-penta-his antibody surface (human, UniProt O14788 136-317)
T3 construct: also called captured hRANKL surface; not shown: his tag implied by capture on anti-penta-his
T3 sequence: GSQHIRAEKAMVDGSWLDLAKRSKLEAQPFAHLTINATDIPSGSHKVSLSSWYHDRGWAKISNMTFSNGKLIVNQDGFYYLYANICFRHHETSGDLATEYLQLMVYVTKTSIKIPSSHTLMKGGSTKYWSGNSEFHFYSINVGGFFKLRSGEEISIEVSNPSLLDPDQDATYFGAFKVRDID

T4: penta-his-tagged hRANKL (human)
T4 construct: also called his-hRANKL; not shown: penta-his tag
T4 chain: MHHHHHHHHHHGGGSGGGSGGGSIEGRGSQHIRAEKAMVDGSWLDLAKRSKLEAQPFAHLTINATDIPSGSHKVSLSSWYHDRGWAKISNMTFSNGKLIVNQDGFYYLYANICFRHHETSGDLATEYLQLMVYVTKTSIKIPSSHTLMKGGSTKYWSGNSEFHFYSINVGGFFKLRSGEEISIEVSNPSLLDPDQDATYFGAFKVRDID

T5: penta-his-tagged monkey (Macaca fascicularis) RANKL (Macaca fascicularis, UniProt O14788 125-317 (human entry))
T5 construct: also called his-mfRANKL; mfRANKL; not shown: penta-his tag
T5 chain: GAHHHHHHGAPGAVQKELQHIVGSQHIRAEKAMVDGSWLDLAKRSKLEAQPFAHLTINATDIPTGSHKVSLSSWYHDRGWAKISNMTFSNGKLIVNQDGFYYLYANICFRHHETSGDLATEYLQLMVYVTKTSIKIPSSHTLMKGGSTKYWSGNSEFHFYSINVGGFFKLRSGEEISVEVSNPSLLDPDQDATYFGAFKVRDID


Tests used:
[1] = target: T1, human RANKL (receptor activator of …); experiment: cell-based or functional assay
[2] = target: T1, human RANKL (receptor activator of …); experiment: cell-based or functional assay; remark: listed apart in the source
[3] = target: T1, human RANKL (receptor activator of …); experiment: SPR (BIACORE), purified antibody, 25°C
[4] = target: T1, human RANKL (receptor activator of …); experiment: SPR (BIACORE), purified antibody, 37°C
human trRANKL-his (R&D) [5] = target: T2, human trRANKL-his (R&D); experiment: SPR, trRANKL-his captured on anti-his, antibody 12.5-50 nM injected, 25°C
Description: (§1) Briefly, human trRANKL-his (R&D) was first captured over an anti-his surface. […] The antigen and antibody binding and dissociation were monitored for 1 hr. KD is expressed in pM, T_{1/2} in hrs.

human trRANKL-his (R&D) [6] = target: T2, human trRANKL-his (R&D); experiment: SPR, trRANKL-his captured on anti-his, antibody 12.5-50 nM injected, 37°C
Description: as §1

[7] = target: T3, hRANKL captured on an anti-penta-his …; experiment: SPR (BIACORE), hRANKL captured on anti-penta-his, antibody 25-100 nM injected, 25°C
[8] = target: T3, hRANKL captured on an anti-penta-his …; experiment: SPR (BIACORE), hRANKL captured on anti-penta-his, antibody 25-100 nM injected, 37°C
penta-his-tagged hRANKL [9] = target: T4, penta-his-tagged hRANKL; experiment: competition ELISA: 150 pM his-hRANKL pre-mixed with antibody, free RANKL detected on hRANK-hFc plate
Protocol: (§2) Briefly, hRANK-hFc protein was coated on a 96-well plate in PBS buffer overnight at 4° C. at 2 μg/ml, and nonspecific binding was blocked with BSA, to form a hRANK-hFc surface.

penta-his-tagged hRANKL [10] = target: T4, penta-his-tagged hRANKL; experiment: as above
Protocol: as §2

[11] = target: T5, penta-his-tagged monkey (Macaca …); experiment: competition ELISA: 150 pM his-mfRANKL pre-mixed with antibody, free RANKL detected on hRANK-hFc plate
Protocol: as §2

[12] = target: T5, penta-his-tagged monkey (Macaca …); experiment: as above
Protocol: as §2

| Binder | IC50, hRANKL-inducible luciferase activity in HK293/RANK/NFκB-luc-eGFP cells [1] | IC50, hRANKL-inducible luciferase activity in HK293/RANK/NFκB-luc-eGFP cells [2] | Kd [3] | Kd [4] | Kd (human trRANKL-his (R&D) [5]) | T1/2 (human trRANKL-his (R&D) [5]) | Kd (human trRANKL-his (R&D) [6]) | T1/2 (human trRANKL-his (R&D) [6]) | Kd [7] | T1/2 [7] | Kd [8] | T1/2 [8] | IC50 (penta-his-tagged hRANKL [9]) | IC50 (penta-his-tagged hRANKL [10]) | IC50 [11] | IC50 [12] |
| --- | --- | --- | --- | --- | --- | --- | --- | --- | --- | --- | --- | --- | --- | --- | --- | --- |
| H4H009P (antibody, V domains shown, Purified antibody from clone 2H10) VH: QVQLVESGGGVVQPGRSLRLSCAASGFTFSGYGIHWVRQAPDKGLEWVAVISYDGTNKYYGDSVKGRFTISRDNTKNTLYLQMNSLRTEDTAVYYCAKSLSGTYWGYGMDVWGQGTTVTVS VL: DIQMTQSPSTLSASVGDRVTITCRASQNIGNWLAWYQQKPGKAPKLLIYKASSLQNGVPSRFSGSGSGTEFTLTISSLQPDDFATYYCQRYNSYSWTFGQGTKVEIK | 0.045 nM and 0.084 nM | – | 0.173 nM | 0.0248 nM | – | – | – | – | 0.376 nM | 1 h | 0.881 nM | 0.13 h | 0.06 nM | – | 0.345 nM | – |
| H4H010P2 (antibody, V domains shown) VH: QVQLVQSGGGVVQPGRSLRLSCAASGFTFSGYGMHWVRQAPGKGLDWVTVISYDGSNKHYADSVKGRFTISRDNSKNTLYLQMSSLGPEDTAVYYCAKSLSGTYWGYGMDVWGQGTTVTVSS VL: not shown | – | 0.0187 nM | – | – | 0.134 nM | 1 h | 0.848 nM | 0.15 h | – | – | – | – | – | 0.0519 nM | – | 0.353 nM |

Further binders by falling Kd (human trRANKL-his (R&D) [5]), results first:

| IC50, hRANKL-inducible luciferase activity in HK293/RANK/NFκB-luc-eGFP cells [1] | IC50, hRANKL-inducible luciferase activity in HK293/RANK/NFκB-luc-eGFP cells [2] | Kd [3] | Kd [4] | Kd (human trRANKL-his (R&D) [5]) | T1/2 (human trRANKL-his (R&D) [5]) | Kd (human trRANKL-his (R&D) [6]) | T1/2 (human trRANKL-his (R&D) [6]) | Kd [7] | T1/2 [7] | Kd [8] | T1/2 [8] | IC50 (penta-his-tagged hRANKL [9]) | IC50 (penta-his-tagged hRANKL [10]) | IC50 [11] | IC50 [12] | Binder |
| --- | --- | --- | --- | --- | --- | --- | --- | --- | --- | --- | --- | --- | --- | --- | --- | --- |
| – | 0.015 nM | – | – | 0.0254 nM | 2 h | 0.245 nM | 0.2 h | – | – | – | – | – | 0.0569 nM | – | 1.8 nM | H4H008P2 (antibody, V domains shown) VH: EVQLLESGGGLLQPGGSLRLSCAASGFTFSGFGMSWVRQAPGRGLEWVSVISYDGRNKYYADSVKGRFTSSRDNSKNTLYLQMNSLRAEDTAVYYCAKSLSGTYWGYGMDVWGRGTLVTVSS VL: EIVLTQSPATLSLSPGERATLSCRASQSIRSWLAWYQQKPGQAPRLLIYKASNRATGIPARFSGSGSGTDFTLTISSLEPEDFGVYYCQQYNSYLWTFGGGTKVEIKR |
| 0.02 nM | 0.0108 nM | 0.007 nM | 0.163 nM | 0.0119 nM | 6 h | 0.0395 nM | 1 h | 0.0119 nM | 6 h | 0.0399 nM | 1 h | 0.02 nM | 0.09 nM | 0.16 nM | 0.29 nM | H4H008G (antibody, V domains shown, Purified antibody from clone 2G10) VH: QVQLVESGGGVVQPGRSLRLSCAASGFTFSGFGMHWVRQAPGKGLEWVAVISYDGRNKYYADSVKGRFTISRDNSKNTLYLQMNSLRAEDTAVYYCAKSLSGTYWGYGMDVWGQGTTVTVS VL: not shown |
